Data on 19 substances can be found in patent US20150148520A1.

Values joined by “and” are separate entries in the source; they are usually repeats but may differ in a detail not shown here. Identical values can stand only once.

The target of assay [1] is human IGF-1 receptor (human) (UniProt P08069). Briefly: cell-based or functional assay.
Assay [2] has as its target insulin receptor, B subtype (UniProt P06213). Briefly: cell-based or functional assay.
Assay [3] has as its target insulin receptor, A subtype (UniProt P06213). Description: cell-based or functional assay.
Assay [4] deals with human insulin receptor (human) (UniProt P06213). Briefly: cell-based or functional assay.
Assay [5] shares this target. Briefly: SPA competition, [125I]-insulin, IR membranes.

For the substance “Ala,B5: B^1(A5H10Y16L17)25-C^1-A^1(H8N18N21) (from UniProt P05019 49-110) (ligand)”, the % (in vitro activity, IGF-1 R) in assay [1] turned out to be 2.5%. The same substance came in with a % (in vitro activity, IR-B) in assay [2] of 5.7%.
As to “DP3(SC): B^1(H5,10Y16L17K29)29-A^1(H8,N18,21) (from UniProt P05019 49-110) (ligand)”, in assay [3], the % (in vitro activity, IR-A) was determined as 0.03%.
In the case of “DP3(TC): B^1(H5,10Y16L17K29)29: A^1(H8,N18,21) (ligand)”, the % (in vitro activity, IR-A) in assay [3] amounted to 160%. In assay [2], this substance yielded a % (in vitro activity, IR-B) of 33.1%.
In the same order, the values of “DP8Mut3KA14: B^1(H5,10Y16L17R29)30-C^1des9-12-A^1(H8,K14,N18,21) (from UniProt P05019 49-110) (ligand)” are 132% and 12.6%.
“IGF-1 A (H8 A9 N21): B (H5D10Y16L17 A22) DPI A-COOH (ligand)”: the % Insulin in assay [4] was 360% and 614%.
“IGF-1 A: B (H5D10Y16L17) (S═O) DPI (ligand)”: in assay [5], the % insulin (in test) turned out to be 316% and the 50% inhibitory concentration (IC50) was found to be 0.25 nM.
In the same order, the values of IGF-1 A: B (H5D10Y16L17) DPI (ligand) are 479% and 0.16 nM.
Regarding “MIU-35: B^1(H5,H10,Y16,L17)25-C^1-A^1(H8,N18,N21) (from UniProt P05019 49-110) (ligand)”, in assay [3], the % (in vitro activity, IR-A) was 61.4% and the % Insulin Activity is 61.4%. For the same substance, in assay [1], the % (in vitro activity, IGF-1 R) was 3.2% and the % Insulin Activity was determined as 3.2%. In assay [2], the % (in vitro activity, IR-B) worked out at 17.4% and the % Insulin Activity came out at 17.4%.
Turning to “MIU-43 DP8Mut3: B^1(H5,10Y16L17R29)30-C^1des9-12-A^1(H8,N18,21) (from UniProt P05019 49-110) (ligand)”, in assay [3], the % (in vitro activity, IR-A) amounted to 97.5%. In assay [1], this substance registered a % (in vitro activity, column IGF-1R) of 14.2%. Moreover, in assay [2], the % (in vitro activity, IR-B) came to 16.7%.
The substance “MIU-56: C8-PEG20K B^1(H5,Y16,L17)25-PEG8-K-PEG4-A^1(N18,N21) (from UniProt P05019 49-110) (ligand)” came in with a % Insulin Activity in assay [3] of 14.8%.
As for “MIU-57: B^1(H5,Y16,L17)25-C^1-A^1(N18,21) with a 20 kDa PEG on the N-terminus of the B chain (from UniProt P05019 49-110) (ligand)”, in assay [3], the % (in vitro activity, IR-A) worked out at 4.5% and the % Insulin Activity is 3.1%. Besides, in assay [1], the % (in vitro activity, IGF-1 R) amounted to 1.2% and the % Insulin Activity was determined as 1.2%. Besides, in assay [2], the % (in vitro activity, IR-B) was 1.1% and the % Insulin Activity stood at 1.1%.
Consider “MIU-58: dimer of two B^1(H5,Y16,L17)25-C^1-A^1(N18,21) linked head to head via a 20 kDa PEG chain (from UniProt P05019 49-110) (ligand)”, for which the values for the % Insulin Activity in assay [3], in assay [1] and in assay [2] were 19.7%, 2.6% and 5.8%, respectively.
On the same counts, the results for “MIU-67: B^1(H5,Y16,L17)25-C^1(K8)-A^1(N18,21), two 10K PEG chains at the N-terminus and C8 (from UniProt P05019 49-110) (ligand)” are 0.2%, less than 0.1% and 0.1%.
In the same order, the values of “MIU-68: B^1(H5,Y16,L17,K22)25-C^1(K8)-A^1(N18,21), two 10K PEG chains at the N-terminus and B22 (from UniProt P05019 49-110) (ligand)” are 0.4%, less than 0.1% and 0.1%.
In the same order, the values of “MIU-69: B^1(H5,Y16,L17)25-C^1(K8)-A^1(K14,N18,21), two 10K PEG chains at the N-terminus and A14 (from UniProt P05019 49-110) (ligand)” are 1%, less than 0.1% and 0.5%.
With “MIU-78 mono-20K-TC: B1-20K B^1(H5,10Y16L17K29)29: A^1(H8N18,21) (ligand)”, the % (in vitro activity, IR-A) in assay [3] is 8.2%. In assay [2], the % (in vitro activity, IR-B) stood at 3.2%.
With “MIU-79 di-10K-SC: B1, A14-10K B^1(H5,10Y16L17R29)30-C^1des9-12-A^1(H8,K14,N18,21) (from UniProt P05019 49-110) (ligand)”, the % (in vitro activity, IR-A) in assay [3] is 1.7%. The same substance yielded a % (in vitro activity, IR-B) in assay [2] of 0.2%.
For “Thr,A8: B^1(H5,10Y16L17)25-C^1-A^1(T8N18,21) (from UniProt P05019 49-110) (ligand)”, the % (in vitro activity, IR-A) in assay [3] turned out to be 20.4%. Further, the % (in vitro activity, IGF-1 R) in assay [1] was found to be 3.7%. Further, the % (in vitro activity, IR-B) in assay [2] stood at 8.4%.
As for “di-10K-TC: B1, A14-10K B^1(H5,10Y16L17R29)29: A^1(H8K14N18,21) (ligand)”, the % (in vitro activity, IR-A) in assay [3] was 6.4%. Also, in assay [2], the % (in vitro activity, IR-B) turned out to be 2.1%.

A word on the IC50: it is the point on the concentration scale where inhibition reaches its midpoint.
